According to patent US20260007748A1 (KELONIA THERAPEUTICS, published 2026):

B1: anti-BCMA CAR of recombinant lentivirus LV 15 (SEQ ID NO: 279) (other)
chain: EVQLLESGGGLVQPGGSLRLSCAASGFTFDSYTMSWYRQAPGKERELVSAISGHGDSTYYADSVKGRFTISRDNSKNTLYLQMNSLRAEDTAVYYCTRISITTEWLAGDYWGQGTQVTVSSTTTPAPRPPTPAPTIASQPLSLRPEACRPAAGGAVHTRGLDFACDIYIWAPLAGTCGVLLLSLVITLYCKRGRKKLLYIFKQPFMRPVQTTQEEDGCSCRFPEEEEGGCELRVKFSRSADAPAYQQGQNQLYNELNLGRREEYDVLDKRRGRDPEMGGKPRRKNPQEGLYNELQKDKMAEAYSEIGMKGERRRGKGHDGLYQGLSTATKDTYDALHMQALPPR
notes: Chimeric antigen receptor on transduced human PBMCs: anti-BCMA VHH, CD8α hinge and TM, CD137 costim, CD3ζ
B2: anti-BCMA CAR of recombinant lentivirus LV 10 (SEQ ID NO: 274) (other)
chain: EVQLLESGGGLVQPGGSLRLSCAASGFTFESEAMSWYRQAPGKERELVSVITSEGSTYYADSVKGRFTISRDNSKNTLYLQMNSLRAEDTAVYYCAHIEWETRLNWGQGTQVTVSSTTTPAPRPPTPAPTIASQPLSLRPEACRPAAGGAVHTRGLDFACDIYIWAPLAGTCGVLLLSLVITLYCKRGRKKLLYIFKQPFMRPVQTTQEEDGCSCRFPEEEEGGCELRVKFSRSADAPAYQQGQNQLYNELNLGRREEYDVLDKRRGRDPEMGGKPRRKNPQEGLYNELQKDKMAEAYSEIGMKGERRRGKGHDGLYQGLSTATKDTYDALHMQALPPR
notes: as for B1
B3: anti-BCMA CAR of recombinant lentivirus LV 18 (SEQ ID NO: 283) (other)
chain: EVQLLESGGGLVQPGGSLRLSCAASGFTFSSEGMSWVRQAPGKERELVSAISGSGDHTYYADSVRGRFTISRDNSKNTLYLQMNSLRAEDTAVYYCNALEGGPTTAIQPGGPDYWGQGTQVTVSSTTTPAPRPPTPAPTIASQPLSLRPEACRPAAGGAVHTRGLDFACDIYIWAPLAGTCGVLLLSLVITLYCKRGRKKLLYIFKQPFMRPVQTTQEEDGCSCRFPEEEEGGCELRVKFSRSADAPAYQQGQNQLYNELNLGRREEYDVLDKRRGRDPEMGGKPRRKNPQEGLYNELQKDKMAEAYSEIGMKGERRRGKGHDGLYQGLSTATKDTYDALHMQALPPR
notes: as for B1
B4: anti-BCMA CAR of recombinant lentivirus LV 12 (SEQ ID NO: 276) (other)
chain: EVQLLESGGGLVQPGGSLRLSCAASGFTFEDYAMSWFRQAPGKEREGVSAISGKGGSTYYADSVKGRFTISRDNSKNTLYLQMNSLRAEDTAVYYCAVLDEEAGAEGGYWGQGTQVTVSSTTTPAPRPPTPAPTIASQPLSLRPEACRPAAGGAVHTRGLDFACDIYIWAPLAGTCGVLLLSLVITLYCKRGRKKLLYIFKQPFMRPVQTTQEEDGCSCRFPEEEEGGCELRVKFSRSADAPAYQQGQNQLYNELNLGRREEYDVLDKRRGRDPEMGGKPRRKNPQEGLYNELQKDKMAEAYSEIGMKGERRRGKGHDGLYQGLSTATKDTYDALHMQALPPR
notes: as for B1
B5: anti-BCMA CAR of recombinant lentivirus LV 13 (SEQ ID NO: 277) (other)
chain: EVQLLESGGGLVQPGGSLRLSCAASGFTFDRYAMSWFRQAPGKEREGVSAISTSGDSTYYADSVKGRFTISRDNSKNTLYLQMNSLRAEDTAVYYCAVLDEEAGAEGGYWGQGTQVTVSSTTTPAPRPPTPAPTIASQPLSLRPEACRPAAGGAVHTRGLDFACDIYIWAPLAGTCGVLLLSLVITLYCKRGRKKLLYIFKQPFMRPVQTTQEEDGCSCRFPEEEEGGCELRVKFSRSADAPAYQQGQNQLYNELNLGRREEYDVLDKRRGRDPEMGGKPRRKNPQEGLYNELQKDKMAEAYSEIGMKGERRRGKGHDGLYQGLSTATKDTYDALHMQALPPR
notes: Chimeric antigen receptor on transduced human PBMCs: anti-BCMA VHH, CD8α hinge and TM, CD137 costim, CD3ζ; also called LV 13.1 to LV 13.9
B6: anti-BCMA CAR of recombinant lentivirus LV 11 (SEQ ID NO: 275) (other)
chain: EVQLLESGGGLVQPGGSLRLSCAASGFTFDEYTMHWFRQAPGKEREFVSAISGGGSETYYADSVKGRFTISRDNSKNTLYLQMNSLRAEDTAVYYCAAGGEEAGVGYWGQGTQVTVSSTTTPAPRPPTPAPTIASQPLSLRPEACRPAAGGAVHTRGLDFACDIYIWAPLAGTCGVLLLSLVITLYCKRGRKKLLYIFKQPFMRPVQTTQEEDGCSCRFPEEEEGGCELRVKFSRSADAPAYQQGQNQLYNELNLGRREEYDVLDKRRGRDPEMGGKPRRKNPQEGLYNELQKDKMAEAYSEIGMKGERRRGKGHDGLYQGLSTATKDTYDALHMQALPPR
notes: as for B1
B7: anti-BCMA CAR of recombinant lentivirus LV 8 (SEQ ID NO: 270) (other)
chain: DIQMTQSPSSLSASVGDRVTITCQASQDIANYLNWYQQKPGKAPKLLIYDASNLETGVPSRFSGSGSGTDFTFTISSLQPEDIATYYCQQHFNLPLTFGGGTKVEIKGGGGSGGGGSGGGGSGGGGSQITLKESGPTLVKPTQTLTLTCTFSGFSLSTSGVGVGWIRQPPGKALEWLALIYWNDEKRYSPSLKSRLTITKDTSKNQVVLTMTNMDPVDTAVYYCAREGSHDYKSSNWFDPWGQGTLVTVSSTTTPAPRPPTPAPTIASQPLSLRPEACRPAAGGAVHTRGLDFACDIYIWAPLAGTCGVLLLSLVITLYCKRGRKKLLYIFKQPFMRPVQTTQEEDGCSCRFPEEEEGGCELRVKFSRSADAPAYQQGQNQLYNELNLGRREEYDVLDKRRGRDPEMGGKPRRKNPQEGLYNELQKDKMAEAYSEIGMKGERRRGKGHDGLYQGLSTATKDTYDALHMQALPPR
notes: Chimeric antigen receptor on transduced human PBMCs: anti-BCMA scFv, CD8α hinge and TM, CD137 costim, CD3ζ; also called LV 8.1 to LV 8.9
B8: anti-BCMA CAR of recombinant lentivirus LV 7 (SEQ ID NO: 268) (other)
chain: DIQMTQSPSSLSASVGDRVTITCRASQSISSYLNWYQQKPGKAPKLLIYAASSLQSGVPSRFSGSGSGTDFTLTISSLQPEDFATYYCQQAHSSPITFGGGTKVEIKGGGGSGGGGSGGGGSGGGGSEVQLLESGGGLVQPGGSLRLSCAASGFTFSNYAMSWVRQAPGKGLEWVSAISGSGGSTYYADSVKGRFTISRDNSKNTLYLQMNSLRAEDTAVYYCARPGDGYYEGVYFDYWGQGTLVTVSSTTTPAPRPPTPAPTIASQPLSLRPEACRPAAGGAVHTRGLDFACDIYIWAPLAGTCGVLLLSLVITLYCKRGRKKLLYIFKQPFMRPVQTTQEEDGCSCRFPEEEEGGCELRVKFSRSADAPAYQQGQNQLYNELNLGRREEYDVLDKRRGRDPEMGGKPRRKNPQEGLYNELQKDKMAEAYSEIGMKGERRRGKGHDGLYQGLSTATKDTYDALHMQALPPR
notes: Chimeric antigen receptor on transduced human PBMCs: anti-BCMA scFv, CD8α hinge and TM, CD137 costim, CD3ζ
B9: anti-BCMA CAR of recombinant lentivirus LV 5 (SEQ ID NO: 263) (other)
chain: QVQLVESGGGLVKPGGSLRLSCAASGFTFSDYYMSWIRQAPGKGLEWVSYISSSGSTIYYADSVKGRFTISRDNAKNSLYLQMNSLRAEDTAVYYCARDQGNYGVDVWGQGTTVTVSSGGGGSGGGGSGGGGSGGGGSDIQMTQSPSTLSASVGDRVTITCRASQSISSWLAWYQQKPGKAPKLLIYEASSLESGVPSRFSGSGSGTEFTLTISSLQPDDFATYYCQQSDSHPITFGGGTKVEIKTTTPAPRPPTPAPTIASQPLSLRPEACRPAAGGAVHTRGLDFACDIYIWAPLAGTCGVLLLSLVITLYCKRGRKKLLYIFKQPFMRPVQTTQEEDGCSCRFPEEEEGGCELRVKFSRSADAPAYQQGQNQLYNELNLGRREEYDVLDKRRGRDPEMGGKPRRKNPQEGLYNELQKDKMAEAYSEIGMKGERRRGKGHDGLYQGLSTATKDTYDALHMQALPPR
notes: Chimeric antigen receptor on transduced human PBMCs: anti-BCMA scFv, CD8α hinge and TM, CD137 costim, CD3ζ; also called LV 5.1 to LV 5.9
B10: anti-BCMA CAR of recombinant lentivirus LV 1 (SEQ ID NO: 256) (other)
chain: EIVLTQSPATLSLSPGERATLSCRASQSVSSYLAWYQQKPGQAPRLLIYDASNRATGIPARFSGSGSGTDFTLTISSLEPEDFAVYYCQQRVVYPITFGGGTKVEIKGGGGSGGGGSGGGGSGGGGSQITLKESGPTLVKPTQTLTLTCTFSGFSLSTSGVGVGWIRQPPGKALEWLALIYWNDEKRYSPSLKSRLTITKDTSKNQVVLTMTNMDPVDTAVYYCARDEYGGFDIWGQGTMVTVSSTTTPAPRPPTPAPTIASQPLSLRPEACRPAAGGAVHTRGLDFACDIYIWAPLAGTCGVLLLSLVITLYCKRGRKKLLYIFKQPFMRPVQTTQEEDGCSCRFPEEEEGGCELRVKFSRSADAPAYQQGQNQLYNELNLGRREEYDVLDKRRGRDPEMGGKPRRKNPQEGLYNELQKDKMAEAYSEIGMKGERRRGKGHDGLYQGLSTATKDTYDALHMQALPPR
notes: Chimeric antigen receptor on transduced human PBMCs: anti-BCMA scFv, CD8α hinge and TM, CD137 costim, CD3ζ; Encoded with a CD8α signal peptide
B11: anti-BCMA CAR of recombinant lentivirus LV 2 (SEQ ID NO: 258) (other)
chain: EIVLTQSPATLSLSPGERATLSCRASQSVSSYLAWYQQKPGQAPRLLIYDASNRATGIPARFSGSGSGTDFTLTISSLEPEDFAVYYCQQRFDYPITFGGGTKVEIKGGGGSGGGGSGGGGSGGGGSQITLKESGPTLVKPTQTLTLTCTFSGFSLSTSGVGVGWIRQPPGKALEWLALIYWNDDKRYSPSLKSRLTITKDTSKNQVVLTMTNMDPVDTAVYYCARDEYGGFDIWGQGTMVTVSSTTTPAPRPPTPAPTIASQPLSLRPEACRPAAGGAVHTRGLDFACDIYIWAPLAGTCGVLLLSLVITLYCKRGRKKLLYIFKQPFMRPVQTTQEEDGCSCRFPEEEEGGCELRVKFSRSADAPAYQQGQNQLYNELNLGRREEYDVLDKRRGRDPEMGGKPRRKNPQEGLYNELQKDKMAEAYSEIGMKGERRRGKGHDGLYQGLSTATKDTYDALHMQALPPR
notes: as for B8
B12: anti-BCMA CAR of recombinant lentivirus LV 3 (SEQ ID NO: 259) (other)
chain: QVQLVESGGGVVQPGRSLRLSCAASGFTFSSYGMHWVRQAPGKGLEWVAVISYEGSNKYYADSVKGRFTISRDNSKNTLYLQMNSLRAEDTAVYYCARELGDGMDVWGQGTTVTVSSGGGGSGGGGSGGGGSGGGGSEIVLTQSPATLSLSPGERATLSCRASQSVSSYLAWFQQKPGQAPRLLIYDASNRATGIPARFSGSGSGTDFTLTISSLEPEDFAVYYCQQRVDLWTFGGGTKVEIKTTTPAPRPPTPAPTIASQPLSLRPEACRPAAGGAVHTRGLDFACDIYIWAPLAGTCGVLLLSLVITLYCKRGRKKLLYIFKQPFMRPVQTTQEEDGCSCRFPEEEEGGCELRVKFSRSADAPAYQQGQNQLYNELNLGRREEYDVLDKRRGRDPEMGGKPRRKNPQEGLYNELQKDKMAEAYSEIGMKGERRRGKGHDGLYQGLSTATKDTYDALHMQALPPR
notes: Chimeric antigen receptor on transduced human PBMCs: anti-BCMA scFv, CD8α hinge and TM, CD137 costim, CD3ζ; also called LV 3.1 to LV 3.9

Molecular target: T1, B cell maturation antigen (BCMA) (human, UniProt Q02223 1-184)
T1 construct: BCMA as carried by RPMI-8226 (high BCMA) and Daudi (low BCMA) tumor cells; also called TNFRSF17; tumor necrosis factor receptor superfamily member 17
T1 sequence: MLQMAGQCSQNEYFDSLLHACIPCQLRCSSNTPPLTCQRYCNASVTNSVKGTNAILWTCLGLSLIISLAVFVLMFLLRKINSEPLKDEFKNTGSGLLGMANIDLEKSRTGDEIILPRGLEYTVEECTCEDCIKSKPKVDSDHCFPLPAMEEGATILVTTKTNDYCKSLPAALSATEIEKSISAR
Test: co-culture of transduced PBMCs with RPMI-8226 (high BCMA) or Daudi (low BCMA) cells; recognition read by IFNγ
Description: PBMCs transduced with recombinant lentiviral particles comprising a viral envelope expressing a mutated VSIV-G and a non-viral membrane-bound tropism polypeptide that binds CD3 and a lentiviral vector encoding an MNDU3 promoter operably linked to a polynucleotide encoding a CD8α signal peptide and an anti-BCMA CAR and a WPRE operably linked to the 3′ prime end of the polynucleotide encoding the anti-BCMA CAR (18 anti-BCMA CARs were evaluated) were co-cultured with Daudi cells (low BCMA expression) or RPMI-8226 cells (high BCMA expression) for 24 hours. After 24 hours, IFNγ levels in co-culture supernatant were measured and plotted as a function of % anti-BCMA CAR positive cells in the co-culture.
5×10⁴ PBMCs transduced with recombinant lentiviruses LV 1 to LV 19 were co-cultured with 5×10⁴ high BCMA-expressing tumor cells (RPMI-8226) or 5×10⁴ low BCMA-expressing tumor cells (Daudi) for 24 hours. Anti-BCMA CAR activity was assessed by harvesting co-culture supernatants and measuring IFNγ levels using a Meso Scale Discovery (MSD®) assay. The percentage of anti-BCMA CAR positive cells was plotted against IFNγ levels produced in co-culture. FIG. 2D.

Binder	binding result
B1	binds
B2	binds
B3	binds
B4	binds
B5	binds
B6	binds
B7	binds
B8	binds
B9	binds
B10	binds
B11	binds
B12	binds
